Results as given in PMC7954794, “Protein context shapes the specificity of SH3 domain-mediated interactions in vivo” (Nature Communications, 2021).

B1: YGR281W (protein, UniProt P53049 1-1477, looked up)
Oligomycin resistance …: MTITVGDAVSETELENKSQNVVLSPKASASSDISTDVDKDTSSSWDDKSLLPTGEYIVDRNKPQTYLNSDDIEKVTESDIFPQKRLFSFLHSKKIPEVPQTDDERKIYPLFHTNIISNMFFWWVLPILRVGYKRTIQPNDLFKMDPRMSIETLYDDFEKNMIYYFEKTRKKYRKRHPEATEEEVMENAKLPKHTVLRALLFTFKKQYFMSIVFAILANCTSGFNPMITKRLIEFVEEKAIFHSMHVNKGIGYAIGACLMMFVNGLTFNHFFHTSQLTGVQAKSILTKAAMKKMFNASNYARHCFPNGKVTSFVTTDLARIEFALSFQPFLAGFPAILAICIVLLIVNLGPIALVGIGIFFGGFFISLFAFKLILGFRIAANIFTDARVTMMREVLNNIKMIKYYTWEDAYEKNIQDIRTKEISKVRKMQLSRNFLIAMAMSLPSIASLVTFLAMYKVNKGGRQPGNIFASLSLFQVLSLQMFFLPIAIGTGIDMIIGLGRLQSLLEAPEDDPNQMIEMKPSPGFDPKLALKMTHCSFEWEDYELNDAIEEAKGEAKDEGKKNKKKRKDTWGKPSASTNKAKRLDNMLKDRDGPEDLEKTSFRGFKDLNFDIKKGEFIMITGPIGTGKSSLLNAMAGSMRKTDGKVEVNGDLLMCGYPWIQNASVRDNIIFGSPFNKEKYDEVVRVCSLKADLDILPAGDMTEIGERGITLSGGQKARINLARSVYKKKDIYLFDDVLSAVDSRVGKHIMDECLTGMLANKTRILATHQLSLIERASRVIVLGTDGQVDIGTVDELKARNQTLINLLQFSSQNSEKEDEEQEAVVAGELGQLKYESEVKELTELKKKATEMSQTANSGKIVADGHTSSKEERAVNSISLKIYREYIKAAVGKWGFIALPLYAILVVGTTFCSLFSSVWLSYWTENKFKNRPPSFYMGLYSFFVFAAFIFMNGQFTILCAMGIMASKWLNLRAVKRILHTPMSYIDTTPLGRILNRFTKDTDSLDNELTESLRLMTSQFANIVGVCVMCIVYLPWFAIAIPFLLVIFVLIADHYQSSGREIKRLEAVQRSFVYNNLNEVLGGMDTIKAYRSQERFLAKSDFLINKMNEAGYLVVVLQRWVGIFLDMVAIAFALIITLLCVTRAFPISAASVGVLLTYVLQLPGLLNTILRAMTQTENDMNSAERLVTYATELPLEASYRKPEMTPPESWPSMGEIIFENVDFAYRPGLPIVLKNLNLNIKSGEKIGICGRTGAGKSTIMSALYRLNELTAGKILIDNVDISQLGLFDLRRKLAIIPQDPVLFRGTIRKNLDPFNERTDDELWDALVRGGAIAKDDLPEVKLQKPDENGTHGKMHKFHLDQAVEEEGSNFSLGERQLLALTRALVRQSKILILDEATSSVDYETDGKIQTRIVEEFGDCTILCIAHRLKTIVNYDRILVLEKGEVAEFDTPWTLFSQEDSIFRSMCSRSGIVENDFENRS
B2: YGR238C (protein, UniProt P50090 1-882, looked up)
Kelch repeat-containing …: MVPFKLTNKVPTDTGPSLISAQSVPRPIVFMDNRNNTRIVTPTLPPNQHRGISGASTALPWSPESKNTGKYIWNRVKLKNSPFPRYRHSSSFIVTNDNRIFVTGGLHDQSVYGDVWQIAANADGTSFTSKRIDIDQNTPPPRVGHASTICGNAYVVFGGDTHKLNKNGLLDDDLYLFNINSYKWTIPQPIGRRPLGRYGHKISIIASNPMQTKLYLFGGQVDETYFNDLVVFDLSSFRRPNSHWEFLEPVGDLPPPLTNHTMVAYDNKLWVFGGETPKTISNDTYRYDPAQSEWSKVKTTGEKPPPIQEHASVVYKHLMCVLGGKDTHNAYSNDVYFLNLLSLKWYKLPRMKEGIPQERSGHSLTLMKNEKLLIMGGDKTDYASPNIHDLQTSETDQGEGTLLYTLDLSSLNELCPGIMCESLHAGESFSNSLSGGFTPSKSTESENQEIINILTPRLPDSKVLSYNDIDEGAGSYSSALDDKAFERKSDREEKKPQSSKVDSSINKESPGTGIKVSKKNFPVLRGLTVDSEEYGSSSYKDTSCQKGIPKNLFDDLNLNLQTLRLEAQQKELETARHISQLEKEVQRLMVIKEASKDSNFQTARLKNLEIQKTFLESRINDLKNLLMVKLSQASKLCDQITIQNNGLKTCSEHVTIKRDIIDLENKCDVLKRQNEILVNNMQKITPELHTYLNESSCYLGKLLKSYPTSARPPSSEKDNQIYEKDSLNKIEKVINEMHETVRAKEKLHLETQKLNDERDSLRANLLDNNNKLDALRKLSDGSSKSMDLTKKAIHLSQSELEKYRKNNDDLQKEIDRIKTEQAEQDDKQEQRGAITHGNFDAFHRMKINNLKAELYMSKENRDSLKDELLALKKKLYTLEQKK
B3: YCR002C (protein, UniProt P25342 1-322, looked up)
Cell division control protein …: MDPLSSVQPASYVGFDTITNQIEHRLLKKGFQFNIMVVGQSGLGKSTLINTLFASHLIDSATGDDISALPVTKTTEMKISTHTLVEDRVRLNINVIDTPGFGDFIDNSKAWEPIVKYIKEQHSQYLRKELTAQRERFITDTRVHAILYFLQPNGKELSRLDVEALKRLTEIANVIPVIGKSDTLTLDERTEFRELIQNEFEKYNFKIYPYDSEELTDEELELNRSVRSIIPFAVVGSENEIEINGETFRGRKTRWSAINVEDINQCDFVYLREFLIRTHLQDLIETTSYIHYEGFRARQLIALKENANSRSSAHMSSNAIQR
B4: YKL051W (protein, UniProt P35735 1-353, looked up)
Protein SFK1: MIQFKSPGNWLFIVPWIAFIPWYGMLIAMLICWASQGHPIYWFMHSEQFPVYISDIGATNLRPLFISCAGWQGLGYVITVALEFFQRSGYLPFQLKKKDPSISDSTSYAEKLHSGKYLMPPYYTKDERNLIFAAFVLGSIGELALLFSSIFSTALYHRVHIAMVSVFVVFMFLSTCCLIAEYFLMGRHYASVHPLASPHFNPQSSEKSFNQDYNTVDELPWYKWKGHVWNKFTISATLKVIWLTLAVVWAICFGAINDRSKSACFEWLLAFWFGIIFMILSADFYLGGRYRQSRYFNHVESFSGYYKYDKALGLYHSEDVLPSDDNAGVIATETASSNIYNNSSSNESIQVVV
B5: YML016C (protein, UniProt P26570 2-692, looked up)
Serine/threonine-protein …: GNSSSKSSKKDSHSNSSSRNPRPQVSRTETSHSVKSAKSNKSSRSRRSLPSSSTTNTNSNVPDPSTPSKPNLEVNHQRHSSHTNRYHFPSSSHSHSNSQNELLTTPSSSSTKRPSTSRRSSYNTKAAADLPPSMIQMEPKSPILKTNNSSTHVSKHKSSYSSTYYENALTDDDNDDKDNDISHTKRFSRSSNSRPSSIRSGSVSRRKSDVTHEEPNNGSYSSNNQENYLVQALTRSNSHASSLHSRKSSFGSDGNTAYSTPLNSPGLSKLTDHSGEYFTSNSTSSLNHHSSRDIYPSKHISNDDDIENSSQLSNIHASMENVNDKNNNITDSKKDPNEEFNDIMQSSGNKNAPKKFKKPIDIDETIQKLLDAGYAAKRTKNVCLKNNEILQICIKAREIFLSQPSLLELSPPVKIVGDVHGQYGDLLRLFTKCGFPPSSNYLFLGDYVDRGKQSLETILLLFCYKIKYPENFFLLRGNHECANVTRVYGFYDECKRRCNIKIWKTFIDTFNTLPLAAIVAGKIFCVHGGLSPVLNSMDEIRHVVRPTDVPDFGLINDLLWSDPTDSPNEWEDNERGVSYCYNKVAINKFLNKFGFDLVCRAHMVVEDGYEFFNDRSLVTVFSAPNYCGEFDNWGAVMSVSEGLLCSFELLDPLDSAALKQVMKKGRQERKLANQQQQMMETSITNDNESQQ

Experiments:
Format in all cases: cell-based, Saccharomyces cerevisiae
BBC1 = assay: DHFR-PCA on solid medium, bait BBC1 (Fig. 1B); settings: bait BBC1, label = prey; for medrep (log2 median colony size normalized to plate background, PCA score): 2-4 replicates; for Ratio (SH3-deleted/WT medrep): only significant differences showed, PPIs completely lost have a ratio of 0.1 and the gained PPIs 2.5
Text: (§1) Supplement 41467_2021_21873_MOESM8_ESM.xlsx, sheet "Fig1B" | column: medsize; medrep; Ratio; Score

BEM1-1 = assay: DHFR-PCA on solid medium, bait BEM1-1 (Fig. 1B); settings: bait BEM1-1, label = prey; for medrep (log2 median colony size normalized to plate background, PCA score): 2-8 replicates
Text: as §1

BEM1-2 = assay: DHFR-PCA on solid medium, bait BEM1-2 (Fig. 1B); settings: bait BEM1-2, label = prey; for medrep (log2 median colony size normalized to plate background, PCA score): 2-8 replicates; for Ratio (SH3-deleted/WT medrep): only significant differences showed, PPIs completely lost have a ratio of 0.1 and the gained PPIs 2.5
Text: as §1

BOI1 = assay: DHFR-PCA on solid medium, bait BOI1 (Fig. 1B); settings: bait BOI1, label = prey; for medrep (log2 median colony size normalized to plate background, PCA score): 3-8 replicates; for Ratio (SH3-deleted/WT medrep): only significant differences showed, PPIs completely lost have a ratio of 0.1 and the gained PPIs 2.5
Text: as §1

BOI2 = assay: DHFR-PCA on solid medium, bait BOI2 (Fig. 1B); settings: bait BOI2, label = prey; 3-8 replicates
Text: as §1

BUD14 = assay: DHFR-PCA on solid medium, bait BUD14 (Fig. 1B); settings: bait BUD14, label = prey; 4 replicates
Text: as §1

ABP1 = assay: DHFR-PCA on solid medium, bait ABP1 (Fig. 1B); settings: bait ABP1, label = prey; for medrep (log2 median colony size normalized to plate background, PCA score): 2-4 replicates
Text: as §1

[1] = only significant differences showed, PPIs completely lost have a ratio of 0.1 and the gained PPIs 2.5

Molecule | medrep (log2 median colony size normalized to plate background, PCA score) (BBC1) | Ratio (SH3-deleted/WT medrep) (BBC1) | medrep (log2 median colony size normalized to plate background, PCA score) (BEM1-1) | medrep (log2 median colony size normalized to plate background, PCA score) (BEM1-2) | Ratio (SH3-deleted/WT medrep) (BEM1-2) | medrep (log2 median colony size normalized to plate background, PCA score) (BOI1) | Ratio (SH3-deleted/WT medrep) (BOI1) | medrep (log2 median colony size normalized to plate background, PCA score) (BOI2) | medrep (log2 median colony size normalized to plate background, PCA score) (BUD14) | medrep (log2 median colony size normalized to plate background, PCA score) (ABP1) | Ratio (SH3-deleted/WT medrep) (BEM1-1; [1]) | Ratio (SH3-deleted/WT medrep) (ABP1; [1])
B1 | 1.516 | 0.4155 | 2.579 | 2.579 | 0.1 | 1.486 | 2.5 | 2.696 |  |  |  | 
B2 |  |  |  |  |  |  |  |  | 3.527 |  |  | 
B3 |  |  | 3.007 | 3.007 | 0.1 | 1.419 | 0.1 | 1.509 |  | 2.496 |  | 
B4 | 4.283 |  | 3.661 | 1.764 | 0.482 | 2.409 | 1.668 | 3.168 |  |  | 0.1 | 
B5 | 1.933 | 0.1 | 2.424 | 2.424 | 0.1 | 1.566 | 2.5 | 2.013 |  | 2.329 |  | 1.5236
